The values below come from article doi:10.1101/2024.02.06.578578.

The target in this assay is SkSGLc, SkSGL from Sanguibacter keddieii (KEGG locus tag, Sked_30460) with a C-terminal His6-tag (Sanguibacter keddieii). Nature of the assay: SEC.

The substance “SkSGLc, SkSGL from Sanguibacter keddieii (KEGG locus tag, Sked_30460) with a C-terminal His6-tag (enzyme)” yielded a stoichiometry N of 2.
